US20070004634A1 (published 2007)

Assays:
[1] = biological target: soluble human insulin mini-receptor (mIR) (human, UniProt P06213-2 28-746, limits assumed); test: FP vs FITC-RP9 on mIR
[2] = biological target: T1, human insulin receptor (HIR) (human, UniProt P06213-2 28-1370, limits assumed); test: 125I-insulin competition, solubilized HIR
T1 construct: detergent-solubilized receptor
T1 sequence (P06213 other isoform, or with tags, fused parts or gaps limits assumed): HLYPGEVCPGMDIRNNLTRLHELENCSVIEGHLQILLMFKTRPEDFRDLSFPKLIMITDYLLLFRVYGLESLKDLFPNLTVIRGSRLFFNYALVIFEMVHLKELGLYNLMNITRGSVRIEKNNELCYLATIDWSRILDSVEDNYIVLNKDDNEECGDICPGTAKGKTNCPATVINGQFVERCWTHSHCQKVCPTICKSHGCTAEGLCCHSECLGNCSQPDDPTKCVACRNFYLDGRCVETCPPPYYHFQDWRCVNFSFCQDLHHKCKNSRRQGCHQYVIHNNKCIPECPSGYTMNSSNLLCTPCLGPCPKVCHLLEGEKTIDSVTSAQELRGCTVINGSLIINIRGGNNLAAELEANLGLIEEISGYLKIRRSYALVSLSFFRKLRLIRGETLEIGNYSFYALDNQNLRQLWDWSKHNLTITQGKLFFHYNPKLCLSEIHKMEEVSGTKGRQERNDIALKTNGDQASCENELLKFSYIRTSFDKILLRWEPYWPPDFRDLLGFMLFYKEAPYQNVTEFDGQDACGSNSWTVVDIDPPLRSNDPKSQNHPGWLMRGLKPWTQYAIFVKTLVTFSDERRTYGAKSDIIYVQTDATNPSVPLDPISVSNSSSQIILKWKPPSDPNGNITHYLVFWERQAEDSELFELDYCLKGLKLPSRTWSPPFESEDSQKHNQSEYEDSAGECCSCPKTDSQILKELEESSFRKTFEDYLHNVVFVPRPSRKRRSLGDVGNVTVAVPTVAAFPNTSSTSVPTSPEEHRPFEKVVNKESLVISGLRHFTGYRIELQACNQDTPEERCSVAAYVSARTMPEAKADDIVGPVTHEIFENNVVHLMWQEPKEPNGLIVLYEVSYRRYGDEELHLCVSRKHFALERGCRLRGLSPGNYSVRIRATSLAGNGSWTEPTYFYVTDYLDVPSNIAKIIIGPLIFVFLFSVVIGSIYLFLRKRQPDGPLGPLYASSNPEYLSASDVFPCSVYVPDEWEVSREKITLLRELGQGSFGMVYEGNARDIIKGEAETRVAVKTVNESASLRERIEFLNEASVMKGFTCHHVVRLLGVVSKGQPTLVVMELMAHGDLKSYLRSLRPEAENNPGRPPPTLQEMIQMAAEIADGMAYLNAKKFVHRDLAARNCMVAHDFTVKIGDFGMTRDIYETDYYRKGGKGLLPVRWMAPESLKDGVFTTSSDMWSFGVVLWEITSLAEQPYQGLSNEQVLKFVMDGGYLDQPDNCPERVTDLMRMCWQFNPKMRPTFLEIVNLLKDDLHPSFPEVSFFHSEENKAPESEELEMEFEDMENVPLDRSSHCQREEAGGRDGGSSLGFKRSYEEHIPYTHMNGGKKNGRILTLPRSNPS

| IC50 [1] | Kd [2] | Binder |
| --- | --- | --- |
| 770 nM | – | FHENFYDWFVRQVSKK [H2C] |
| – | 1400 nM | RWPNFYGYFESLLTHFS [S257] |
